Series [1] deals with the molecule itself. As to the kind of experiment: not stated; oligomeric state of the UVR8 mutants without UV-B; method not given; UVR8 lysis buffer (150 mM NaCl, 25 mM Tris, pH 8.0), room temperature.
Series [2] deals with the molecule itself. Nature of the series: SEC; Superdex200 size column run after the sub-nanosecond TCSPC measurements (290 nm pulsed LED, 10 uM samples); dimer to monomers.

The values that follow come from PMC7455749, “A leap in quantum efficiency through light harvesting in photoreceptor UVR8” (Nature Communications, 2020).

B1: UVR8 mutant 6Wd + 3Wp (all four tryptophans of the 4Wc pyramid center changed to phenylalanine, on the W400F template) (receptor, Arabidopsis thaliana, UniProt Q9FN03 1-440, looked up)
chain: MAEDMAADEVTAPPRKVLIISAGASHSVALLSGDIVCSWGRGEDGQLGHGDAEDRPSPTQLSALDGHQIVSVTCGADHTVAYSQSGMEVYSWGFGDFGRLGHGNSSDLFTPLPIKALHGIRIKQIACGDSHCLAVTMEGEVQSWGRNQNGQLGLGDTEDSLVPQKIQAFEGIRIKMVAAGAEHTAAVTEDGDLYGWGWGRYGNLGLGDRTDRLVPERVTSTGGEKMSMVACGFRHTISVSYSGALYTYGWSKYGQLGHGDLEDHLIPHKLEALSNSFISQISGGFRHTMALTSDGKLYGWGWNKFGQVGVGNNLDQCSPVQVRFPDDQKVVQVSCGFRHTLAVTERNNVFAWGRGTNGQLGIGESVDRNFPKIIEALSVDGASGQHIESSNIDPSSGKSFVSPAERYAVVPDETGLTDGSSKGNGGDISVPQTDVKRVRI
notes: UVR8, Arabidopsis thaliana; W400F template
For the protein B1, in series [1], the “stoichiometry N” value worked out at 2.

B2: Arabidopsis thaliana UVR8 (UV … LOCUS 8) W400F, redefined as wild type (WT) (receptor, UniProt Q9FN03 1-440, looked up)
chain: MAEDMAADEVTAPPRKVLIISAGASHSVALLSGDIVCSWGRGEDGQLGHGDAEDRPSPTQLSALDGHQIVSVTCGADHTVAYSQSGMEVYSWGWGDFGRLGHGNSSDLFTPLPIKALHGIRIKQIACGDSHCLAVTMEGEVQSWGRNQNGQLGLGDTEDSLVPQKIQAFEGIRIKMVAAGAEHTAAVTEDGDLYGWGWGRYGNLGLGDRTDRLVPERVTSTGGEKMSMVACGWRHTISVSYSGALYTYGWSKYGQLGHGDLEDHLIPHKLEALSNSFISQISGGWRHTMALTSDGKLYGWGWNKFGQVGVGNNLDQCSPVQVRFPDDQKVVQVSCGWRHTLAVTERNNVFAWGRGTNGQLGIGESVDRNFPKIIEALSVDGASGQHIESSNIDPSSGKSFVSPAERYAVVPDETGLTDGSSKGNGGDISVPQTDVKRVRI
notes: UVR8, Arabidopsis thaliana; the construct holds residue 400 (W400F); also called UVR8 WT
B2: the binding result in series [2] was “binds”.

What is called stoichiometry N is the number of molecules, sites or subunits per partner or assembly.
